Laboratory results as given in EP4477673A1, “IMMUNOCONJUGATE AND USE THEREOF” (priority 2022, dated 2023).
Where a chain is given by its changes, count along the chain named. In names and notes the source's numbering stands.

How the values were obtained:
human PD-1 = human PD-1 (human, UniProt Q15116 25-288); assay: cell-based or functional assay
[1] = biological target: Human PD-1 antigen protein (Sino Biological, 10377-H08H) (human, UniProt Q15116 25-167); assay: SPR Biacore 8K, fusion protein captured by anti-human IgG (Fc), human PD-1 as analyte
[2] = tested on: unstimulated CD4^+ T cells; assay: Unstimulated T cell proliferation experiment (Ki-67, FACS); assay type: cell-based, human; settings: 4 days
Protocol: (§1) T cells stimulated with CD3 antibodies highly express PD-1. To determine whether the PD-1-IL-2v with different IL-2 mutants described above can activate T cells among human peripheral blood mononuclear cells (PBMCs) that lowly express PD-1 and highly express PD-1, T cells were isolated from PBMCs and stimulated with a CD3 antibody. The effects of the fusion proteins described above on the proliferation of unstimulated and stimulated T cells were assessed. Unstimulated T cell proliferation experiment: The isolated T cells were counted and then plated at 5 × 10^5 cells/mL onto a 96-well plate at 200 µL/well. The test samples were serially diluted with culture medium to prepare 5× working solutions, and 50 µL of each concentration of the test samples was added to the stimulated T cells and mixed well. The plate was incubated for 4 days. After the drug treatment, the cells were washed twice with FACS buffer, and dead cells were labeled with FVD780. After flow cytometry antibody staining, cell proliferation was examined by FACS.

[3] = tested on: unstimulated CD8^+ T cells; assay: as above; assay type: cell-based, human; settings: 4 days
Protocol: as §1

[4] = tested on: CD4^+ T cells stimulated with the CD3 antibody; assay: Proliferation experiment of T cells stimulated with a CD3 antibody (Ki-67, FACS); assay type: cell-based, human; settings: 4 days
Protocol: (§2) T cells stimulated with CD3 antibodies highly express PD-1. To determine whether the PD-1-IL-2v with different IL-2 mutants described above can activate T cells among human peripheral blood mononuclear cells (PBMCs) that lowly express PD-1 and highly express PD-1, T cells were isolated from PBMCs and stimulated with a CD3 antibody. The effects of the fusion proteins described above on the proliferation of unstimulated and stimulated T cells were assessed. Proliferation experiment of T cells stimulated with a CD3 antibody: After frozen human PBMCs were thawed, T cells were obtained by isolation using a Pan T Cell Isolation Kit (Miltenyi, 130-096-535). The CD3 antibody was diluted with PBS to 0.1 µg/mL and added to a 10 cm culture dish. The dish was coated at 37 °C for 2 h and washed with PBS for later use. The T cells were plated at 2 × 10^6 cells/mL onto the 10 cm culture dish precoated with the CD3 antibody and stimulated at 37 °C with 5% CO2 for 24 h. The stimulated T cells were collected, washed, and counted, and the cell density was adjusted to 5 × 10^5 cells/mL. The cells were plated at 200 µL/well onto a 96-well plate. The test samples were serially diluted with culture medium to prepare 5× working solutions, and 50 µL of each concentration of the test samples was added to the stimulated T cells and mixed well. The plate was incubated for 4 days. After the drug treatment, the cells were washed twice with FACS buffer (PBS + 2% FBS), and dead cells were labeled with Fixable Viability Dye (eBioscience, 65-0865-14). After flow cytometry antibody staining with CD3 (BD, 565491), CD4 (BD, 558116), CD8 (BD, 565310), Ki-67 (eBioscience, 12-5698-82)), cell proliferation was examined by FACS.

[5] = tested on: CD8^+ T cells stimulated with the CD3 antibody; assay: as above; assay type: cell-based, human; settings: 4 days
Protocol: as §2

Human PD-1 antigen protein (Sino Biological, 10377-H08H), sequence (Q15116 25-167 limits assumed): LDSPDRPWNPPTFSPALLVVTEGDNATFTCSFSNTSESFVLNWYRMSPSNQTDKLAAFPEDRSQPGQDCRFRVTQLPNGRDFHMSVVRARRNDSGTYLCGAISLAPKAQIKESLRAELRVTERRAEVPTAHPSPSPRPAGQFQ
human PD-1, sequence (Q15116 25-288 limits assumed): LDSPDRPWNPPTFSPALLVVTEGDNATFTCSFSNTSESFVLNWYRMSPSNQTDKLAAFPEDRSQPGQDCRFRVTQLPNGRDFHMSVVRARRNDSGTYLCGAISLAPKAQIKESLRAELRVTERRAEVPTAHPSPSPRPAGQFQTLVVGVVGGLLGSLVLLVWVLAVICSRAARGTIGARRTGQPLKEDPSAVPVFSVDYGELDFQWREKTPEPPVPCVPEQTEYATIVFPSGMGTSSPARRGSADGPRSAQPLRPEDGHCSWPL

B1: A-N88D-M26 (Fc fusion)
chain (part 1 of 2): EVQLVESGGGLVQPGGSLRLSCAASGLTFSSYSMSWYRQAPGKGRELVAIISGSGGITHYVDSVKGRFTISRDNAKNTLYLQMRSLRAEDTAVYYCRAVSDWEDYWGQGTQVTVSS
chain (part 2 of 2): GGGGSGGGGSGGGGSAPASSSTKKTQLQLEHLLLDLQMILQGISNYKNPKLTRMLTAKFYMPKKATELKHLQCLEEELKPLEEVLQGAQSKNFHLRPRDLISDINVIVLELKGSETTFMCEYADETATIVEFLNRWITFAQSIISTLT
chain: B1 chain (part 1 of 2)
notes: not shown: IgG1 hinge (C220S) + Fc Knob chain as in A-N88D; IgG1 hinge (C220S) + Fc Hole chain as in A-N88D
M07e-hPD-1 cell proliferation ratio (%) at 0.0001 nM (human PD-1): 3.7% | M07e-hPD-1 cell proliferation ratio (%) at 0.001 nM (human PD-1): 4.8% | M07e-hPD-1 cell proliferation ratio (%) at 0.01 nM (human PD-1): 9.3% | M07e-hPD-1 cell proliferation ratio (%) at 0.1 nM (human PD-1): 10.7% | M07e-hPD-1 cell proliferation ratio (%) at 1 nM (human PD-1): 23.2% | M07e-hPD-1 cell proliferation ratio (%) at 10 nM (human PD-1): 37% | M07e-hPD-1 cell proliferation ratio (%) at 100 nM (human PD-1): 43.1% | M07e-hPD-1 cell proliferation ratio (%) at 1000 nM (human PD-1): 54.4% | Kd [1]: 53.1 nM | koff [1]: 0.00948 s⁻¹ | kon [1]: 179000 M⁻¹ s⁻¹

B2: A-N88D-M27 (Fc fusion)
chain (part 1 of 2): B1 chain (part 1 of 2) with E103Q
chain (part 2 of 2): B1 chain (part 2 of 2)
chain: B1 chain (part 1 of 2) with E103Q
notes: as for B1
M07e-hPD-1 cell proliferation ratio (%) at 0.0001 nM (human PD-1): 7.5% | M07e-hPD-1 cell proliferation ratio (%) at 0.001 nM (human PD-1): 4.9% | M07e-hPD-1 cell proliferation ratio (%) at 0.01 nM (human PD-1): 4.9% | M07e-hPD-1 cell proliferation ratio (%) at 0.1 nM (human PD-1): 9.3% | M07e-hPD-1 cell proliferation ratio (%) at 1 nM (human PD-1): 21.1% | M07e-hPD-1 cell proliferation ratio (%) at 10 nM (human PD-1): 31.9% | M07e-hPD-1 cell proliferation ratio (%) at 100 nM (human PD-1): 39.5% | M07e-hPD-1 cell proliferation ratio (%) at 1000 nM (human PD-1): 60% | Kd [1]: 74.3 nM | koff [1]: 0.0102 s⁻¹ | kon [1]: 137000 M⁻¹ s⁻¹

B3: A-N88D-M28 (Fc fusion)
chain (part 1 of 2): B1 chain (part 1 of 2) with V61A, E103Q
chain (part 2 of 2): B1 chain (part 2 of 2)
chain: B1 chain (part 1 of 2) with V61A, E103Q
notes: as for B1
M07e-hPD-1 cell proliferation ratio (%) at 0.0001 nM (human PD-1): 7.2% | M07e-hPD-1 cell proliferation ratio (%) at 0.001 nM (human PD-1): 6.3% | M07e-hPD-1 cell proliferation ratio (%) at 0.01 nM (human PD-1): 9.4% | M07e-hPD-1 cell proliferation ratio (%) at 0.1 nM (human PD-1): 7.6% | M07e-hPD-1 cell proliferation ratio (%) at 1 nM (human PD-1): 12.4% | M07e-hPD-1 cell proliferation ratio (%) at 10 nM (human PD-1): 19.1% | M07e-hPD-1 cell proliferation ratio (%) at 100 nM (human PD-1): 34.4% | M07e-hPD-1 cell proliferation ratio (%) at 1000 nM (human PD-1): 51.3% | Kd [1]: 134 nM | koff [1]: 0.0198 s⁻¹ | kon [1]: 148000 M⁻¹ s⁻¹

B4: PEG-IL-2v (conjugate)
chain: APASSSTKKTQLQLEHLLLDLQMILQGISNYKNPKLTRMLTAKFYMPKKATELKHLQCLEEELKPLEEVLQGAQSKNFHLRPRDLISNINVIVLELKGSETTFMCEYADETATIVEFLNRWITFAQSIISTLT
CD4^+ Ki67^+ cells (%) ([2]; 0.001 nM): 0.29% | CD4^+ Ki67^+ cells (%) ([2]; 0.01 nM): 1.51% | CD4^+ Ki67^+ cells (%) ([2]; 0.1 nM): 1.38% | CD4^+ Ki67^+ cells (%) ([2]; 1 nM): 1.77% | CD4^+ Ki67^+ cells (%) ([2]; 10 nM): 10.2% | CD4^+ Ki67^+ cells (%) ([2]; 100 nM): 45% | CD8^+ Ki67^+ cells (%) ([3]; 0.001 nM): 0.22% | CD8^+ Ki67^+ cells (%) ([3]; 0.01 nM): 0.59% | CD8^+ Ki67^+ cells (%) ([3]; 0.1 nM): 0.29% | CD8^+ Ki67^+ cells (%) ([3]; 1 nM): 1.54% | CD8^+ Ki67^+ cells (%) ([3]; 10 nM): 43% | CD8^+ Ki67^+ cells (%) ([3]; 100 nM): 87.3% | CD4^+ Ki67^+ cells (%) ([4]; 0.001 nM): 32.9% | CD4^+ Ki67^+ cells (%) ([4]; 0.01 nM): 34.8% | CD4^+ Ki67^+ cells (%) ([4]; 0.1 nM): 43.3% | CD4^+ Ki67^+ cells (%) ([4]; 1 nM): 63% | CD4^+ Ki67^+ cells (%) ([4]; 10 nM): 73% | CD4^+ Ki67^+ cells (%) ([4]; 100 nM): 74.7% | CD8^+ Ki67^+ cells (%) ([5]; 0.001 nM): 55.5% | CD8^+ Ki67^+ cells (%) ([5]; 0.01 nM): 55.5% | CD8^+ Ki67^+ cells (%) ([5]; 0.1 nM): 67.1% | CD8^+ Ki67^+ cells (%) ([5]; 1 nM): 76.6% | CD8^+ Ki67^+ cells (%) ([5]; 10 nM): 82% | CD8^+ Ki67^+ cells (%) ([5]; 100 nM): 82.5%
